Laboratory results from PMC10704370.

Biological target: YmgB (purified, biotinylated) (Escherichia coli) (UniProt P75993)
Test: BLI; biotinylated YmgB or YmgB^R74G immobilised on streptavidin biosensors, SpoT^TGS-Helical 2-50 μM as analyte; Blitz, 25 °C; 50 mM Tris-HCl pH 8.0, 500 mM NaCl, 500 mM KCl, 2 mM β-mercaptoethanol, 2% glycerol, BSA 1 mg/ml; KD from steady-state responses, one site model

Sequence of UniProt P75993 (P75993 whole entry): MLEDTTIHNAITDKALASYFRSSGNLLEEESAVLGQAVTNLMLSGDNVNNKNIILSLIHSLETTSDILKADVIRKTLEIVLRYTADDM

Substance: SpoT^TGS-Helical (purified) (domain or fragment)
- Kd: 8.73 µM
